In the RNAGym collection of RNA variant scans (doi:10.1073/pnas.2313332121):

B1: TPR t1 (parent)
chain: GACCAAUCUGCCCUCAGAGCUCGAGAACAUCUUCGGAUGCAGAGGAGGCAGGCUUCGGUGGCGCGAUAGCGCCAACGUCCUCAACCUCCAAUGCAUCCCACCACAUGAUGAUGCCUGAAGAGCCUUGGUUUUUUG

Variants of: B1
Assay: polymerase ribozyme fitness, log enrichment relative to wild type (log ratio); higher = more active; in vitro selection for triplet polymerase activity
Method in brief: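 After PCR construction and transcription, each subunit's mutant library from a heterodimeric triplet polymerase ribozyme was annealed with a biotinylated primer, the partner subunit and triplets. Incubation was frozen, at −7 °C, and extended constructs were gel-excised, bound to streptavidin beads and amplified by RT-PCR, in one selection round done in triplicate. Fitness is the logarithm of a genotype's enrichment divided by that of the wild type, from inverse-variance-weighted replicate averages of Illumina-sequenced inputs and outputs. The base of the logarithm is 2, and genotypes needed ≥10 input reads and ≥1 read per output.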
In the case of A2U C102U G113A U129A, the “polymerase ribozyme fitness (log ratio)” value is reported as -2.88.
In the case of A2G G42U G69A C123A, the “polymerase ribozyme fitness (log ratio)” value is reported as -5.6.
With A2U C11A U33A A37U G61U G120A the “polymerase ribozyme fitness (log ratio)” value was -4.91.
With A2U C99U the “polymerase ribozyme fitness (log ratio)” value was -5.84.
With A2U A121U the “polymerase ribozyme fitness (log ratio)” value was -0.628.
In the case of A2G A74U C89G U112A, the “polymerase ribozyme fitness (log ratio)” value is reported as -1.32.
For A2U C13A C73G, the “polymerase ribozyme fitness (log ratio)” value was -5.15.
For A2G C12G U21A G71U U78A A121U, the “polymerase ribozyme fitness (log ratio)” value was 0.758.
For A2C U106A, the “polymerase ribozyme fitness (log ratio)” value was -1.44.
For A2G U21A G69U G71C, the “polymerase ribozyme fitness (log ratio)” value was -4.01.
For A2C C3G G71C U129A, the “polymerase ribozyme fitness (log ratio)” value was -4.77.
With A2C U7G G57U G60U the “polymerase ribozyme fitness (log ratio)” value was -0.82.
With A2G G110U A118G the “polymerase ribozyme fitness (log ratio)” value was -1.67.
In the case of A2G G35C C124A, the “polymerase ribozyme fitness (log ratio)” value is reported as -4.18.
For A2G C56A, the “polymerase ribozyme fitness (log ratio)” value was -0.384.
With A2U C8U G69U C82G C114U the “polymerase ribozyme fitness (log ratio)” value was -2.12.
In the case of A2G C11A C56G, the “polymerase ribozyme fitness (log ratio)” value is reported as -1.58.
For A2G C13U A91C G122A, the “polymerase ribozyme fitness (log ratio)” value was -0.77.
With A2G G63C U116A the “polymerase ribozyme fitness (log ratio)” value was -4.03.
With A2C U54C G110A the “polymerase ribozyme fitness (log ratio)” value was -3.04.
For A2C G52C, the “polymerase ribozyme fitness (log ratio)” value was -2.58.
In the case of A2C C15U C56U U129C, the “polymerase ribozyme fitness (log ratio)” value is reported as -1.75.
In the case of A2U C53G C88G, the “polymerase ribozyme fitness (log ratio)” value is reported as -3.42.
For A2U A16G A26U G60U A119G, the “polymerase ribozyme fitness (log ratio)” value was -4.84.
For A2U C76A, the “polymerase ribozyme fitness (log ratio)” value was -3.43.
With A2C C49A G93U G110A the “polymerase ribozyme fitness (log ratio)” value was -4.44.
In the case of A2U G35U G69U C79U G120A G128A, the “polymerase ribozyme fitness (log ratio)” value is reported as -3.99.
For A2C U7A G10U C98U, the “polymerase ribozyme fitness (log ratio)” value was -4.07.
In the case of A2G C114A U126C, the “polymerase ribozyme fitness (log ratio)” value is reported as -4.32.
With A2G G71U the “polymerase ribozyme fitness (log ratio)” value was -0.153.
For A2C C12G, the “polymerase ribozyme fitness (log ratio)” value was -1.09.
With A2C C89G the “polymerase ribozyme fitness (log ratio)” value was -3.68.
For A2G G19U C34U G47A C49A C80A G93C G120U, the “polymerase ribozyme fitness (log ratio)” value was -6.24.
For A2G G47U A84C C88U A90U A91C U133G, the “polymerase ribozyme fitness (log ratio)” value was -2.71.
In the case of A2U C12A G63U C104G U109C, the “polymerase ribozyme fitness (log ratio)” value is reported as -6.12.
With A2C C4A G120A the “polymerase ribozyme fitness (log ratio)” value was 0.58.
For A2C A5C C62A G128C, the “polymerase ribozyme fitness (log ratio)” value was -2.75.
For A2G C97U G117A A119G, the “polymerase ribozyme fitness (log ratio)” value was -0.0934.
With A2U A6G C12U A24G C56A C97U the “polymerase ribozyme fitness (log ratio)” value was -3.05.
With A2U A16U U96A G128A the “polymerase ribozyme fitness (log ratio)” value was -4.83.
With A2G C82G the “polymerase ribozyme fitness (log ratio)” value was -1.18.
With A2G G63C the “polymerase ribozyme fitness (log ratio)” value was -0.0882.
For A2U C115G, the “polymerase ribozyme fitness (log ratio)” value was -3.95.
In the case of A2G C82A A111U, the “polymerase ribozyme fitness (log ratio)” value is reported as -4.1.
In the case of A2G G10C G51C G52U, the “polymerase ribozyme fitness (log ratio)” value is reported as -5.66.
For G1U, the “polymerase ribozyme fitness (log ratio)” value was 0.29.
For A2G C12G G17A U54C C88U A91U C101U A105U C114G, the “polymerase ribozyme fitness (log ratio)” value was -5.19.
In the case of A2C G47C C123G, the “polymerase ribozyme fitness (log ratio)” value is reported as -2.2.
In the case of A2C C3G G52U G60A U129A, the “polymerase ribozyme fitness (log ratio)” value is reported as -5.23.
With A2G C28U G110U the “polymerase ribozyme fitness (log ratio)” value was -2.63.
With A2U C11G G48U G93U G120C G122U the “polymerase ribozyme fitness (log ratio)” value was -1.28.
For A2G C56A C73U A84U G120U, the “polymerase ribozyme fitness (log ratio)” value was -1.68.
In the case of A2C G61U, the “polymerase ribozyme fitness (log ratio)” value is reported as -1.66.
For A2G C12U C101U A105U C115A, the “polymerase ribozyme fitness (log ratio)” value was -1.02.
For A2G G63A C99U C101A A121G C124G, the “polymerase ribozyme fitness (log ratio)” value was -4.81.
For A2U G39C G45A U132A, the “polymerase ribozyme fitness (log ratio)” value was -3.5.
In the case of A2G G52U G69C C86U, the “polymerase ribozyme fitness (log ratio)” value is reported as -1.64.
With A2G G51A C73G the “polymerase ribozyme fitness (log ratio)” value was -2.89.
For A2C C15A A27C C31A G51U A84C C99G A121U U130G, the “polymerase ribozyme fitness (log ratio)” value was -6.15.
For A2U G10U A100C, the “polymerase ribozyme fitness (log ratio)” value was -4.35.
In the case of A2U C88G U130A, the “polymerase ribozyme fitness (log ratio)” value is reported as -2.84.
In the case of A2U C40U G47U C72U C124A, the “polymerase ribozyme fitness (log ratio)” value is reported as -3.11.
For A2U C8G A27C G36C C40G G60A G93C G110U U130G, the “polymerase ribozyme fitness (log ratio)” value was -5.89.
For A2G C13U, the “polymerase ribozyme fitness (log ratio)” value was 0.291.
In the case of A2G C123G, the “polymerase ribozyme fitness (log ratio)” value is reported as 1.69.
For A2C C13A G36C G120U, the “polymerase ribozyme fitness (log ratio)” value was -1.59.
For A2C G44C, the “polymerase ribozyme fitness (log ratio)” value was -3.44.
With A2C C12U G42U A84U C94A U129A the “polymerase ribozyme fitness (log ratio)” value was -3.55.
In the case of A2G C20G G113A, the “polymerase ribozyme fitness (log ratio)” value is reported as -1.61.
With A2G C8A G51U U59G the “polymerase ribozyme fitness (log ratio)” value was -2.18.
For A2U A108G, the “polymerase ribozyme fitness (log ratio)” value was -3.51.
For A2C G19A A29C A41G A43U C64G G113A C123A U126G, the “polymerase ribozyme fitness (log ratio)” value was -5.93.
For A2C C13G C15U C62U, the “polymerase ribozyme fitness (log ratio)” value was -4.93.
For A2U C8U G47C G93U, the “polymerase ribozyme fitness (log ratio)” value was -4.25.
For A2G U55G G135U, the “polymerase ribozyme fitness (log ratio)” value was -1.42.
With A2G G19A A43G C80U C104U the “polymerase ribozyme fitness (log ratio)” value was -4.42.
In the case of A2C C3U, the “polymerase ribozyme fitness (log ratio)” value is reported as -1.71.
For A2U A6G G17U G39U G52U C73G, the “polymerase ribozyme fitness (log ratio)” value was -5.54.
With A2G G60C G71U A91C G120C the “polymerase ribozyme fitness (log ratio)” value was -6.25.
With A2C G110A A121C the “polymerase ribozyme fitness (log ratio)” value was -2.66.
For A2U C22U C86U G110U, the “polymerase ribozyme fitness (log ratio)” value was -6.04.
For A2G A29G G71A A90C, the “polymerase ribozyme fitness (log ratio)” value was -3.65.
In the case of A2U C11G, the “polymerase ribozyme fitness (log ratio)” value is reported as 0.322.
